# System: Escherichia coli TOP10
# Test: shrunken log2 fold change of peptide-encoding DNA abundance (4.5 h post-induction vs induction); higher = less antimicrobial activity (less host growth inhibition)
# Conditions: time post-induction: 4.5 h; library: site-saturation at positions 5, 18, 19, 20
# 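Note: peptides expressed intracellularly from a pBAD plasmid library in pooled LB shake-flask culture, induced with 0.3% L-arabinose, DNA abundance read by NGS, three biological replicates, DESeq2 with apeglm shrinkage.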
row,Sequence,shrunken log2 fold change
1,RRIRSRPPRLPRPRPRPCHIPRP,-0.872
2,RRIRSRPPRLPRPRPRPCICPRP,-0.209
3,RRIRSRPPRLPRPRPRPCIHPRP,-1.37
4,RRIRSRPPRLPRPRPRPCLCPRP,-1.28
5,RRIRSRPPRLPRPRPRPCLTPRP,-0.293
6,RRIRSRPPRLPRPRPRPCMCPRP,-0.0077
7,RRIRSRPPRLPRPRPRPCMWPRP,0.0267
8,RRIRSRPPRLPRPRPRPCNAPRP,-0.0263
9,RRIRSRPPRLPRPRPRPCPEPRP,-0.444
10,RRIRSRPPRLPRPRPRPCPMPRP,-0.337
11,RRIRSRPPRLPRPRPRPCSDPRP,0.21
12,RRIRSRPPRLPRPRPRPCTQPRP,-0.294
13,RRIRSRPPRLPRPRPRPCTTPRP,-0.135
14,RRIRSRPPRLPRPRPRPCTYPRP,-0.454
15,RRIRSRPPRLPRPRPRPCVLPRP,-0.247
16,RRIRSRPPRLPRPRPRPCVYPRP,-0.0613
17,RRIRSRPPRLPRPRPRPCYIPRP,-0.582
18,RRIRSRPPRLPRPRPRPCYWPRP,-0.121
19,RRIRSRPPRLPRPRPRPDAHPRP,0.0464
20,RRIRSRPPRLPRPRPRPDDSPRP,-0.237
21,RRIRSRPPRLPRPRPRPDDWPRP,0.155
22,RRIRSRPPRLPRPRPRPDEEPRP,0.895
23,RRIRSRPPRLPRPRPRPDFDPRP,0.0818
24,RRIRSRPPRLPRPRPRPDGEPRP,0.0597
25,RRIRSRPPRLPRPRPRPDGGPRP,-0.125

row,Sequence,shrunken log2 fold change
1,RRIRSRPPRLPRPRPRPDGLPRP,0.0397
2,RRIRSRPPRLPRPRPRPDIVPRP,0.252
3,RRIRSRPPRLPRPRPRPDLGPRP,0.0168
4,RRIRSRPPRLPRPRPRPDLLPRP,-0.0424
5,RRIRSRPPRLPRPRPRPDLNPRP,0.0448
6,RRIRSRPPRLPRPRPRPDMRPRP,0.187
7,RRIRSRPPRLPRPRPRPDNVPRP,4.24
8,RRIRSRPPRLPRPRPRPDPCPRP,0.0809
9,RRIRSRPPRLPRPRPRPDPEPRP,0.183
10,RRIRSRPPRLPRPRPRPDPGPRP,0.246
11,RRIRSRPPRLPRPRPRPDQGPRP,-0.196
12,RRIRSRPPRLPRPRPRPDSHPRP,-0.36
13,RRIRSRPPRLPRPRPRPDSQPRP,-0.267
14,RRIRSRPPRLPRPRPRPDTIPRP,-1.3
15,RRIRSRPPRLPRPRPRPDVPPRP,-0.0936
16,RRIRSRPPRLPRPRPRPDYPPRP,-0.0733
17,RRIRSRPPRLPRPRPRPECDPRP,0.262
18,RRIRSRPPRLPRPRPRPECKPRP,0.275
19,RRIRSRPPRLPRPRPRPEDKPRP,-0.00968
20,RRIRSRPPRLPRPRPRPEGLPRP,-0.0431
21,RRIRSRPPRLPRPRPRPEHMPRP,-0.391
22,RRIRSRPPRLPRPRPRPEKKPRP,0.0751
23,RRIRSRPPRLPRPRPRPEKQPRP,0.1
24,RRIRSRPPRLPRPRPRPELDPRP,0.674
25,RRIRSRPPRLPRPRPRPEMQPRP,0.0419

row,Sequence,shrunken log2 fold change
1,RRIRSRPPRLPRPRPRPEPFPRP,0.621
2,RRIRSRPPRLPRPRPRPEQCPRP,-0.00373
3,RRIRSRPPRLPRPRPRPESIPRP,-0.397
4,RRIRSRPPRLPRPRPRPESVPRP,0.17
5,RRIRSRPPRLPRPRPRPETHPRP,0.0531
6,RRIRSRPPRLPRPRPRPETSPRP,0.358
7,RRIRSRPPRLPRPRPRPEWFPRP,-0.287
8,RRIRSRPPRLPRPRPRPEWNPRP,0.119
9,RRIRSRPPRLPRPRPRPEYSPRP,-0.322
10,RRIRSRPPRLPRPRPRPEYYPRP,0.0495
11,RRIRSRPPRLPRPRPRPFAEPRP,0.256
12,RRIRSRPPRLPRPRPRPFAPPRP,0.314
13,RRIRSRPPRLPRPRPRPFDVPRP,-0.151
14,RRIRSRPPRLPRPRPRPFELPRP,0.0413
15,RRIRSRPPRLPRPRPRPFGAPRP,0.162
16,RRIRSRPPRLPRPRPRPFKFPRP,-0.438
17,RRIRSRPPRLPRPRPRPFKVPRP,-0.0212
18,RRIRSRPPRLPRPRPRPFKYPRP,-0.418
19,RRIRSRPPRLPRPRPRPFLIPRP,-0.383
20,RRIRSRPPRLPRPRPRPFLVPRP,-0.361
21,RRIRSRPPRLPRPRPRPFMDPRP,-0.519
22,RRIRSRPPRLPRPRPRPFMKPRP,-0.205
23,RRIRSRPPRLPRPRPRPFMLPRP,-0.411
24,RRIRSRPPRLPRPRPRPFNEPRP,-0.19
25,RRIRSRPPRLPRPRPRPFNGPRP,-0.0626

row,Sequence,shrunken log2 fold change
1,RRIRSRPPRLPRPRPRPFPGPRP,0.0161
2,RRIRSRPPRLPRPRPRPFQGPRP,-0.0569
3,RRIRSRPPRLPRPRPRPFRYPRP,-0.822
4,RRIRSRPPRLPRPRPRPFSTPRP,-0.372
5,RRIRSRPPRLPRPRPRPFSYPRP,-0.0241
6,RRIRSRPPRLPRPRPRPFTMPRP,-0.811
7,RRIRSRPPRLPRPRPRPFVEPRP,-0.123
8,RRIRSRPPRLPRPRPRPFVIPRP,-0.206
9,RRIRSRPPRLPRPRPRPFWMPRP,-0.293
10,RRIRSRPPRLPRPRPRPFYVPRP,-0.546
11,RRIRSRPPRLPRPRPRPGAGPRP,0.445
12,RRIRSRPPRLPRPRPRPGAPPRP,0.613
13,RRIRSRPPRLPRPRPRPGAVPRP,0.324
14,RRIRSRPPRLPRPRPRPGCPPRP,0.18
15,RRIRSRPPRLPRPRPRPGDAPRP,0.298
16,RRIRSRPPRLPRPRPRPGDEPRP,0.0674
17,RRIRSRPPRLPRPRPRPGDKPRP,0.0832
18,RRIRSRPPRLPRPRPRPGEWPRP,-0.0156
19,RRIRSRPPRLPRPRPRPGGLPRP,0.177
20,RRIRSRPPRLPRPRPRPGGPPRP,0.415
21,RRIRSRPPRLPRPRPRPGHDPRP,-0.0796
22,RRIRSRPPRLPRPRPRPGHMPRP,0.0805
23,RRIRSRPPRLPRPRPRPGHNPRP,-0.433
24,RRIRSRPPRLPRPRPRPGILPRP,-0.0441
25,RRIRSRPPRLPRPRPRPGKSPRP,-0.0274

row,Sequence,shrunken log2 fold change
1,RRIRSRPPRLPRPRPRPGMDPRP,0.0734
2,RRIRSRPPRLPRPRPRPGMHPRP,-0.0823
3,RRIRSRPPRLPRPRPRPGMKPRP,-0.0636
4,RRIRSRPPRLPRPRPRPGMMPRP,0.227
5,RRIRSRPPRLPRPRPRPGMRPRP,0.789
6,RRIRSRPPRLPRPRPRPGPQPRP,0.885
7,RRIRSRPPRLPRPRPRPGSDPRP,0.0314
8,RRIRSRPPRLPRPRPRPGTQPRP,0.00256
9,RRIRSRPPRLPRPRPRPGWRPRP,0.923
10,RRIRSRPPRLPRPRPRPGYDPRP,-0.125
11,RRIRSRPPRLPRPRPRPHAGPRP,0.428
12,RRIRSRPPRLPRPRPRPHCPPRP,-0.0154
13,RRIRSRPPRLPRPRPRPHEAPRP,0.0366
14,RRIRSRPPRLPRPRPRPHFHPRP,-0.428
15,RRIRSRPPRLPRPRPRPHFNPRP,-0.419
16,RRIRSRPPRLPRPRPRPHFQPRP,-0.275
17,RRIRSRPPRLPRPRPRPHGFPRP,-0.0309
18,RRIRSRPPRLPRPRPRPHGRPRP,-0.0222
19,RRIRSRPPRLPRPRPRPHHWPRP,-0.221
20,RRIRSRPPRLPRPRPRPHIAPRP,-0.255
21,RRIRSRPPRLPRPRPRPHKCPRP,0.00997
22,RRIRSRPPRLPRPRPRPHKSPRP,-0.414
23,RRIRSRPPRLPRPRPRPHMKPRP,0.427
24,RRIRSRPPRLPRPRPRPHMWPRP,0.202
25,RRIRSRPPRLPRPRPRPHNKPRP,-0.71

row,Sequence,shrunken log2 fold change
1,RRIRSRPPRLPRPRPRPHPKPRP,0.12
2,RRIRSRPPRLPRPRPRPHQFPRP,-0.124
3,RRIRSRPPRLPRPRPRPHRHPRP,-0.0713
4,RRIRSRPPRLPRPRPRPHSCPRP,-0.0203
5,RRIRSRPPRLPRPRPRPHVCPRP,0.0517
6,RRIRSRPPRLPRPRPRPHVHPRP,-0.412
7,RRIRSRPPRLPRPRPRPHVLPRP,-0.54
8,RRIRSRPPRLPRPRPRPHWRPRP,0.39
9,RRIRSRPPRLPRPRPRPHYKPRP,-0.891
10,RRIRSRPPRLPRPRPRPICYPRP,-0.475
11,RRIRSRPPRLPRPRPRPIECPRP,-0.139
12,RRIRSRPPRLPRPRPRPIEDPRP,0.0359
13,RRIRSRPPRLPRPRPRPIEFPRP,-0.387
14,RRIRSRPPRLPRPRPRPIENPRP,-0.00961
15,RRIRSRPPRLPRPRPRPIHFPRP,-0.106
16,RRIRSRPPRLPRPRPRPIIMPRP,-0.35
17,RRIRSRPPRLPRPRPRPIKSPRP,0.041
18,RRIRSRPPRLPRPRPRPILNPRP,-0.183
19,RRIRSRPPRLPRPRPRPILWPRP,-0.0848
20,RRIRSRPPRLPRPRPRPIPHPRP,-0.184
21,RRIRSRPPRLPRPRPRPIPKPRP,0.125
22,RRIRSRPPRLPRPRPRPIPLPRP,-0.115
23,RRIRSRPPRLPRPRPRPIQEPRP,0.000527
24,RRIRSRPPRLPRPRPRPIREPRP,-0.0902
25,RRIRSRPPRLPRPRPRPIRLPRP,-0.27
